# Test results: the supplement of paper PMC10065799, “High-throughput profiling of sequence recognition by tyrosine kinases and SH2 domains using bacterial peptide display” (eLife, 2023)
# System: c-Abl (mouse)
# Test: phosphorylation enrichment, bacterial display (enrichment ratio); higher = better substrate or ligand; peptides without Tyr show the background
# 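Note: 11-residue human phosphosite peptides and single-mutation variants displayed on the E. coli surface, counted by deep sequencing, each peptide's frequency after selection divided by its frequency in the unselected input library; frequency after pTyr selection over input frequency; kinase dosed for 20-30% of maximal phosphorylation in three min.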
row,Sequence,phosphorylation enrichment
1,QEGPEYWDQET [HLA-A_Y83],0.907
2,RSYSPCDYQPC [TNS1_Y796_Y796C],0.457
3,DIDKIYVRTGI [PIK3CA_Y355],0.713
4,LVMFIDAIFGM [SCN1A_Y1684_Y1684D],1.74
5,ASGKYYAMKIL [AKT3_Y174],0.582
6,VNNTVYGIDAM [EIF3J_Y143_A141T],0.616
7,LSSLAYSGKDA [FXN_Y205],0.85
8,FGISGYVVDSV [MAP2K3_Y214_L215V],0.532
9,ENRKFYKDLKE [PURA_Y156_M157K_YF],0.431
10,HDRREYSRFEK [ITGB7_Y758_Y753H],0.887
11,SSVAGYACLAY [MVD_Y131_A128V],0.768
12,VRVQLYDPDFM [CYP4A22_Y100_Y104F],0.734
13,KDKLPYPYDDP [GPX2_Y125],0.584
14,GLDSSYLLRDS [SH2D1A_Y29_G27S],0.434
15,KFVKMYDNHQL [MYO9A_Y203_YF],0.438
16,SSMNDYNPLEK [MYOC_Y479_I477N],0.625
17,TDKLFYIFTSG [SLC27A4_Y243_YF],0.766

row,Sequence,phosphorylation enrichment
1,FGRTFYNQANM [MCCC2_Y196_I200N],0.842
2,VFGEEYEEQPR [ZMYM2_Y1033],0.709
3,SGPRHYTIAAL [TTR_Y125_R124H],0.524
4,YRDMDYRSYPH [RBM10_Y41_R46H],0.5
5,RSGNCYLDIRP [FBN1_Y1535],1.04
6,IHKEFYDGLFP [BCR_Y561],0.864
7,KQFWRYFPGNL [SLC25A4_Y112_A114P],0.695
8,KSSDVYVSFDF [SORL1_Y136_YF],0.935
9,PKEQKYSFLQN [GH1_Y68],0.625
10,ILCTVYAFKTR [GRM3_Y754],0.696
11,PSALGYSPSLH [LLGL2_Y40_R45H],0.864
12,PVQAPYQKVVA [HBB_Y131_A130P],0.732
13,QGIIIYKAAFF [SLC25A4_Y187_R188K_YF],1.1
14,GIVEDYRPPLY [ACVRL1_Y421_F425L],0.59
15,LHNLFYQLEAE [PKP2_Y616_S615F],2.03
16,DTKDDYNALSV [IL17RB_Y457],0.679

# Biological target: Fes (UniProt P07332)
# Sequence (P07332 whole entry, looked up): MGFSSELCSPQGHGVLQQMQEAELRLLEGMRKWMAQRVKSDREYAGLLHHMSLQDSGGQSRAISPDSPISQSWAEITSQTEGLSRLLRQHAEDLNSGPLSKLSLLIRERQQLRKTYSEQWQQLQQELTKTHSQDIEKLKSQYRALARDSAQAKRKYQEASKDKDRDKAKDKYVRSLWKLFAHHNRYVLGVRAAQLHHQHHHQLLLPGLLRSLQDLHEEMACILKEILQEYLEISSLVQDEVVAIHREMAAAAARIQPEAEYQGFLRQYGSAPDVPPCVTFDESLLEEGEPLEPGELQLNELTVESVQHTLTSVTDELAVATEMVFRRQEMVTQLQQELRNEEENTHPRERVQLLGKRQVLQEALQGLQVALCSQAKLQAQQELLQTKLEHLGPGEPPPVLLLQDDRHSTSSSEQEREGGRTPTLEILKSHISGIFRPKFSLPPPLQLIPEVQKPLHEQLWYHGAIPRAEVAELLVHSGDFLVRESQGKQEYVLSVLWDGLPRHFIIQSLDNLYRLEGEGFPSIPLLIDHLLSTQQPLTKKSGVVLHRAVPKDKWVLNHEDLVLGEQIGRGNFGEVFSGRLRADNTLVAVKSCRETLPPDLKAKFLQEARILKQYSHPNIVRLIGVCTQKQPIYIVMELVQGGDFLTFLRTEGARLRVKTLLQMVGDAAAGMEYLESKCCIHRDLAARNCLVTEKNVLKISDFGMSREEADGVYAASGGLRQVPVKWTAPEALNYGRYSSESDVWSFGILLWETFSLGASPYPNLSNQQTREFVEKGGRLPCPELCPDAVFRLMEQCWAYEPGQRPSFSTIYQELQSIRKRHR
# Test: as above
row,Sequence,phosphorylation enrichment
1,QEGPEYWDQET [HLA-A_Y83],1.79
2,RSYSPCDYQPC [TNS1_Y796_Y796C],0.935
3,DIDKIYVRTGI [PIK3CA_Y355],0.934
4,LVMFIDAIFGM [SCN1A_Y1684_Y1684D],3.65
5,ASGKYYAMKIL [AKT3_Y174],0.657
6,VNNTVYGIDAM [EIF3J_Y143_A141T],0.698
7,LSSLAYSGKDA [FXN_Y205],0.703
8,FGISGYVVDSV [MAP2K3_Y214_L215V],0.956
9,ENRKFYKDLKE [PURA_Y156_M157K_YF],0.699
10,HDRREYSRFEK [ITGB7_Y758_Y753H],0.973
11,SSVAGYACLAY [MVD_Y131_A128V],0.994
12,VRVQLYDPDFM [CYP4A22_Y100_Y104F],1.17
13,KDKLPYPYDDP [GPX2_Y125],1.17
14,GLDSSYLLRDS [SH2D1A_Y29_G27S],0.612
15,KFVKMYDNHQL [MYO9A_Y203_YF],0.572
16,SSMNDYNPLEK [MYOC_Y479_I477N],0.977
17,TDKLFYIFTSG [SLC27A4_Y243_YF],1.44

row,Sequence,phosphorylation enrichment
1,FGRTFYNQANM [MCCC2_Y196_I200N],1.06
2,VFGEEYEEQPR [ZMYM2_Y1033],1.39
3,SGPRHYTIAAL [TTR_Y125_R124H],0.66
4,YRDMDYRSYPH [RBM10_Y41_R46H],0.64
5,RSGNCYLDIRP [FBN1_Y1535],1.27
6,IHKEFYDGLFP [BCR_Y561],1.27
7,KQFWRYFPGNL [SLC25A4_Y112_A114P],1.02
8,KSSDVYVSFDF [SORL1_Y136_YF],1.22
9,PKEQKYSFLQN [GH1_Y68],0.862
10,ILCTVYAFKTR [GRM3_Y754],1.49
11,PSALGYSPSLH [LLGL2_Y40_R45H],0.823
12,PVQAPYQKVVA [HBB_Y131_A130P],0.94
13,QGIIIYKAAFF [SLC25A4_Y187_R188K_YF],1.36
14,GIVEDYRPPLY [ACVRL1_Y421_F425L],0.918
15,LHNLFYQLEAE [PKP2_Y616_S615F],2.87
16,DTKDDYNALSV [IL17RB_Y457],1.07

# Biological target: Hck (UniProt P08631)
# Sequence (P08631 whole entry, looked up): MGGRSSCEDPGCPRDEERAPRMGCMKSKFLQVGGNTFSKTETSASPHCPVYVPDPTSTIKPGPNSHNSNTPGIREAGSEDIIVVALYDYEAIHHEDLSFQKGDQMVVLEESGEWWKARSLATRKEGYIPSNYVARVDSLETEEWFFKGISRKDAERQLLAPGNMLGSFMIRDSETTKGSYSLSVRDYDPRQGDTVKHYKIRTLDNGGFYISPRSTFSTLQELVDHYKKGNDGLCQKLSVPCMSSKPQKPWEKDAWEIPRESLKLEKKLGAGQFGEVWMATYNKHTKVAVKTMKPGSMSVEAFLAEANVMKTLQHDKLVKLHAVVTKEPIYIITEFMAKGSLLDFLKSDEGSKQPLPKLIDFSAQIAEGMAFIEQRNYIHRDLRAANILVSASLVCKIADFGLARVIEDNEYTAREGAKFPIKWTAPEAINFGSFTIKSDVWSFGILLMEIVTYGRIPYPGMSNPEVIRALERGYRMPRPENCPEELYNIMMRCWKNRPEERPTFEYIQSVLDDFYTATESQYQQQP
# Test: as above
row,Sequence,phosphorylation enrichment
1,QEGPEYWDQET [HLA-A_Y83],0.73
2,RSYSPCDYQPC [TNS1_Y796_Y796C],0.777
3,DIDKIYVRTGI [PIK3CA_Y355],0.529
4,LVMFIDAIFGM [SCN1A_Y1684_Y1684D],1.38
5,ASGKYYAMKIL [AKT3_Y174],0.434
6,VNNTVYGIDAM [EIF3J_Y143_A141T],0.626
7,LSSLAYSGKDA [FXN_Y205],0.579
8,FGISGYVVDSV [MAP2K3_Y214_L215V],0.49
9,ENRKFYKDLKE [PURA_Y156_M157K_YF],0.473
10,HDRREYSRFEK [ITGB7_Y758_Y753H],0.524
11,SSVAGYACLAY [MVD_Y131_A128V],0.538
12,VRVQLYDPDFM [CYP4A22_Y100_Y104F],0.561
13,KDKLPYPYDDP [GPX2_Y125],0.435
14,GLDSSYLLRDS [SH2D1A_Y29_G27S],0.323
15,KFVKMYDNHQL [MYO9A_Y203_YF],0.424
16,SSMNDYNPLEK [MYOC_Y479_I477N],0.479
17,TDKLFYIFTSG [SLC27A4_Y243_YF],0.524

row,Sequence,phosphorylation enrichment
1,FGRTFYNQANM [MCCC2_Y196_I200N],0.503
2,VFGEEYEEQPR [ZMYM2_Y1033],0.526
3,SGPRHYTIAAL [TTR_Y125_R124H],0.468
4,YRDMDYRSYPH [RBM10_Y41_R46H],0.457
5,RSGNCYLDIRP [FBN1_Y1535],0.544
6,IHKEFYDGLFP [BCR_Y561],1.17
7,KQFWRYFPGNL [SLC25A4_Y112_A114P],0.524
8,KSSDVYVSFDF [SORL1_Y136_YF],3.02
9,PKEQKYSFLQN [GH1_Y68],0.577
10,ILCTVYAFKTR [GRM3_Y754],0.624
11,PSALGYSPSLH [LLGL2_Y40_R45H],0.432
12,PVQAPYQKVVA [HBB_Y131_A130P],0.687
13,QGIIIYKAAFF [SLC25A4_Y187_R188K_YF],0.526
14,GIVEDYRPPLY [ACVRL1_Y421_F425L],0.382
15,LHNLFYQLEAE [PKP2_Y616_S615F],2.2
16,DTKDDYNALSV [IL17RB_Y457],0.546

# Biological target: EPHB2 (UniProt P29323)
# Sequence (P29323 whole entry, looked up): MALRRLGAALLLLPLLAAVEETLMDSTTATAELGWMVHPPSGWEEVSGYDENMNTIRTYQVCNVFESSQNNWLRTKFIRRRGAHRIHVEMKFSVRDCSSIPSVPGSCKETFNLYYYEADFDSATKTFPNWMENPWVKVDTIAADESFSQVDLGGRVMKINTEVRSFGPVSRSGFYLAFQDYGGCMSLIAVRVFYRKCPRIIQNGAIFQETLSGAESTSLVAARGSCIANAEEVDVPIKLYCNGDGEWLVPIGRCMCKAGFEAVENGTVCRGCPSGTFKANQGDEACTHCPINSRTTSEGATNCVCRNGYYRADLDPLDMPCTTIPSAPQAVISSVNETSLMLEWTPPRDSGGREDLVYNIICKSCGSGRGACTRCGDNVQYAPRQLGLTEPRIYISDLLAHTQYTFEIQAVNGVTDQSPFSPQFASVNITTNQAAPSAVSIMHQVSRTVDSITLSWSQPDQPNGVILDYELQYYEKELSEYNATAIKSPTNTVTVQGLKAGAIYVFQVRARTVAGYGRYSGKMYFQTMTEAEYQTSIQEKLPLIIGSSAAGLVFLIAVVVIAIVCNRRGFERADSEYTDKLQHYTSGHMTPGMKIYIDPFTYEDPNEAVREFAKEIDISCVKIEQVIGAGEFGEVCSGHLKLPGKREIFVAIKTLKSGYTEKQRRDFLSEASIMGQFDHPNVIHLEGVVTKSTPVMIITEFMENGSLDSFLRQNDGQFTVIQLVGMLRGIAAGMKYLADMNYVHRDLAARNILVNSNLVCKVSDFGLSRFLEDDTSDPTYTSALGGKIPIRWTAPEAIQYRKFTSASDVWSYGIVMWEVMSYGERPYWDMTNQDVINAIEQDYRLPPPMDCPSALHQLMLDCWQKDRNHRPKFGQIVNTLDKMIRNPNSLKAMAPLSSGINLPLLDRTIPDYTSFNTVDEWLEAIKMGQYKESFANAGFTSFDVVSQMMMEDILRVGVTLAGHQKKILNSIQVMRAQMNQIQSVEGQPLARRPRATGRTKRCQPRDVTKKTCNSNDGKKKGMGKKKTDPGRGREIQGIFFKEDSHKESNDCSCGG
# Test: as above
row,Sequence,phosphorylation enrichment
1,QEGPEYWDQET [HLA-A_Y83],0.533
2,RSYSPCDYQPC [TNS1_Y796_Y796C],8.45
3,DIDKIYVRTGI [PIK3CA_Y355],0.593
4,LVMFIDAIFGM [SCN1A_Y1684_Y1684D],1.67
5,ASGKYYAMKIL [AKT3_Y174],0.407
6,VNNTVYGIDAM [EIF3J_Y143_A141T],0.429
7,LSSLAYSGKDA [FXN_Y205],0.702
8,FGISGYVVDSV [MAP2K3_Y214_L215V],0.517
9,ENRKFYKDLKE [PURA_Y156_M157K_YF],0.552
10,HDRREYSRFEK [ITGB7_Y758_Y753H],0.373
11,SSVAGYACLAY [MVD_Y131_A128V],0.582
12,VRVQLYDPDFM [CYP4A22_Y100_Y104F],0.631
13,KDKLPYPYDDP [GPX2_Y125],0.487
14,GLDSSYLLRDS [SH2D1A_Y29_G27S],0.36
15,KFVKMYDNHQL [MYO9A_Y203_YF],0.482
16,SSMNDYNPLEK [MYOC_Y479_I477N],0.454
17,TDKLFYIFTSG [SLC27A4_Y243_YF],0.701

row,Sequence,phosphorylation enrichment
1,FGRTFYNQANM [MCCC2_Y196_I200N],0.509
2,VFGEEYEEQPR [ZMYM2_Y1033],0.767
3,SGPRHYTIAAL [TTR_Y125_R124H],0.51
4,YRDMDYRSYPH [RBM10_Y41_R46H],0.486
5,RSGNCYLDIRP [FBN1_Y1535],0.7
6,IHKEFYDGLFP [BCR_Y561],0.743
7,KQFWRYFPGNL [SLC25A4_Y112_A114P],0.521
8,KSSDVYVSFDF [SORL1_Y136_YF],1.11
9,PKEQKYSFLQN [GH1_Y68],0.951
10,ILCTVYAFKTR [GRM3_Y754],0.478
11,PSALGYSPSLH [LLGL2_Y40_R45H],0.436
12,PVQAPYQKVVA [HBB_Y131_A130P],0.691
13,QGIIIYKAAFF [SLC25A4_Y187_R188K_YF],0.723
14,GIVEDYRPPLY [ACVRL1_Y421_F425L],0.482
15,LHNLFYQLEAE [PKP2_Y616_S615F],1.9
16,DTKDDYNALSV [IL17RB_Y457],0.625
